Legend:
[1] = tested on: gram-negative bacteria (E. coli, Klebsiella pneumoniae); experiment: Whole cell ELISA on formalin-fixed gram-negative bacteria; format: binding; settings: formalin-fixed bacteria as solid phase
Experimental: (§1) For whole-cell ELISA, different strains of bacteria (i.e., gram-positive: Staphylococcus aureus, Staphylococcus epidermidis and Streptococcus pyogenes; gram-negative: Escherichia coli and Klebsiella pneumonia) were grown in LB medium without antibiotics and, after washing with 1X PBS, fixed in 0.5% formalin O/N at 4°C. Subsequently, the bacteria were diluted to an OD600 of 0.5 and were used to coat microtiter plates O/N at 37°C. After blocking, increasing concentrations of IFI16 were added to the wells and incubated for 2 h at RT. Anti-IFI16 antibodies against the N-terminus of the protein and HRP-labelled anti-rabbit IgG were then added as primary and secondary antibody, respectively, and binding was detected as described above.

[2] = tested on: gram-positive bacteria (Staphylococcus aureus, Staphylococcus epidermidis, Streptococcus pyogenes); experiment: Whole cell ELISA on formalin-fixed gram-positive bacteria; format: binding; settings: formalin-fixed bacteria as solid phase
Experimental: as §1

NF-κB [3] = experiment: ELISA-based transcription factor binding assay, 786-O nuclear extracts; format: cell-based, human; settings: 2 h, IFI16 25 μg/ml, LPS-EB 10 ng/ml
Experimental: (§2) Nuclear extracts were prepared using NE-PER Nuclear and Cytoplasmic Extraction Reagents (Thermo Fisher Scientific), according to the manufacturer’s instructions. NF-κB binding activity to a DNA probe containing its binding consensus sequence was measured by Universal Transcription Factor Assay Colorimetric kit (Merck Millipore). […] The following biotinylated oligonucleotides were used: sense (biotin): 5’-[…]-3’; antisense: 5’-[…]-3’.

[4] = In vitro pull-down assay with biotin-LPS-EB and streptavidin beads; format: binding, E. coli O111:B4; settings: 3 μg recombinant protein; 10 μg biotin-LPS-EB
Experimental: Biotin-labeled LPS-EB (10 μg) was incubated with 30 μl of streptavidin sepharose high performance beads (GE Healthcare) for 3 h at 4°C. After a washing step, 3 μg of recombinant IFI16, PYRIN, HINA, HINB, IFI16ΔHINB, or GST were added and incubated O/N at 4°C. After five washes with 1X PBS with 0.25% Triton X-100 (Sigma-Aldrich), samples were boiled in sample buffer containing SDS and β-mercaptoethanol and centrifuged. Supernatants were separated on a 7.5% or 12% SDS-polyacrylamide gel (Bio-Rad). Gels were stained with Coomassie brilliant blue (Serva Electrophoresis GmbH) for protein visualization.

TLR4/MD2 receptor [5] = target: T1, TLR4/MD2 receptor (Homo sapiens, UniProt O00206+Q9Y6Y9); experiment: Co-immunoprecipitation with anti-TLR4 antibody from treated 786-O cells; format: cell-based; set-up: endogenous in cells; host or cells: 786-O; settings: 786-O cells stimulated 1 h; extracts untreated or DNase I-treated
Experimental: Co-immunoprecipitation of TLR4 with interacting proteins was performed using the Dynabeads Protein G Immunoprecipitation Kit (ThermoFisher), according to the manufacturer’s instructions with minor modifications. Briefly, after lysis of treated cells, 20 μg of total cell extracts were kept as the input control, while 90 μg of total cell extracts were incubated for 1 h at RT with 2.5 μg of anti-TLR4 antibody previously conjugated with magnetic beads. The resulting complexes were then washed, eluted, denatured, and subjected to Western blotting as described above. For DNase-treated cell extracts, DNase I (Sigma Aldrich) was added at a 1:10 dilution and incubated for 15 min at RT. Images were acquired, and densitometry of the bands was performed using Quantity One software (version 4.6.9, Bio-Rad). Densitometry values were normalized using the corresponding loading controls.
Target sequence in this assay (O00206 24-839): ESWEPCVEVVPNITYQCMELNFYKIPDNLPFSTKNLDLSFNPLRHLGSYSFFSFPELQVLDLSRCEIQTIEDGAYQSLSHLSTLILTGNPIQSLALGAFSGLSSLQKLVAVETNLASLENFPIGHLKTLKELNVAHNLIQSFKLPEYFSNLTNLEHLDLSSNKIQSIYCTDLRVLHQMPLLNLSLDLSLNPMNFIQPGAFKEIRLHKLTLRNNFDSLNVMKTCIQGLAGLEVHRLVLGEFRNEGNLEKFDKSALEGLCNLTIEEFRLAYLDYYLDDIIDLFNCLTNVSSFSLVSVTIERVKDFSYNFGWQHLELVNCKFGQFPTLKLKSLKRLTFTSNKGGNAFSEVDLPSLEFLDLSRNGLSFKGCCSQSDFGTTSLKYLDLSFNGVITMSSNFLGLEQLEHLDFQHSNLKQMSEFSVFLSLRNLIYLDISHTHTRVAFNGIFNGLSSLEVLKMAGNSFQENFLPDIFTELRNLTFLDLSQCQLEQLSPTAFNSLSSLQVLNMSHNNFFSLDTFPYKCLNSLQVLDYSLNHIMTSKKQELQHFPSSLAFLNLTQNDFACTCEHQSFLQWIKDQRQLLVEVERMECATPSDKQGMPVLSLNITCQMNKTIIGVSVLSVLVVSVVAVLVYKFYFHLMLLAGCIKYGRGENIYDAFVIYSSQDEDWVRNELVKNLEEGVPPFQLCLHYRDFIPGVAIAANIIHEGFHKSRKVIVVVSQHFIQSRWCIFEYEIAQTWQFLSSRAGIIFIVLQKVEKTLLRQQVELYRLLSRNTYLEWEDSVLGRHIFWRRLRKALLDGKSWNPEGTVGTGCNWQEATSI
Target sequence in this assay (Q9Y6Y9 17-160 limits assumed): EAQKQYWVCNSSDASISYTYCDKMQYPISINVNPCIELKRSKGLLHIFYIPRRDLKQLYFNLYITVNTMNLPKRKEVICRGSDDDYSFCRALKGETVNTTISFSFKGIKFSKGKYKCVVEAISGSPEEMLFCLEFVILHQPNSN

TLR4 = target: T2, TLR4 (Homo sapiens, UniProt O00206); experiment: SPR, IFI16 over immobilized TLR4; format: binding; settings: IFI16 31.25–1,000 nM over immobilized TLR4; read-out: equilibrium dissociation constant (KD)
T2 construct: purchased R&D Systems 478-TR-050
Experimental: The Biacore X100 (GE Healthcare) instrument was used for real-time binding interaction experiments. Recombinant TLR4 or TLR4/MD2 complex was covalently immobilized onto the surface of sensor CM5 (cat # BR100012, GE Healthcare) chips via amine coupling. TLR4 was diluted to a concentration of 10 μg/ml in 10 mM sodium acetate at pH 4.0, while TLR4/MD2 complex was diluted to a concentration of 20 μg/ml in the same buffer. Both proteins were injected on CM5 chips at a flow rate of 10 μl/min, upon activation of the carboxyl groups on the sensor surface with 7-min injection of a mixture of 0.2 M EDC and 0.05 M NHS. The remaining esters were blocked with 7-min injection of ethanolamine. Taking into account the ligands (TLR4 or TLR4/MD2) and analytes (IFI16, LPS-EB or IFI16/LPS-EB) molecular weights (MW) of 70 or 90 kDa, and 90, 10 or 100 kDa respectively, the appropriate ligand density (RL) on the chip was calculated according to the following equation: RL = (ligand MW/analyte MW) × Rmax × (1/Sm), where Rmax is the maximum binding signal and Sm corresponds to the binding stoichiometry. The target capture level of the TLR4 or TLR4/MD2 was of 596.0 or 1,223.9 response units (RUs), respectively. […]

NF-κB [6] = experiment: ELISA-based transcription factor binding assay, THP-1 nuclear extracts; format: cell-based, human; settings: 2 h, IFI16 25 μg/ml, LPS-EB 10 ng/ml
Experimental: as §2

786-O cells [7] = experiment: qRT-PCR of proinflammatory cytokine mRNA in 786-O cells; format: cell-based, human; settings: 24 h, IFI16 25 μg/ml, over mock-treated cells
Experimental: (§3) For treatments, cells were stimulated in complete medium with endotoxin-free IFI16 (25 μg/ml), endotoxin-free IFI16ΔHINB (25 μg/ml), MPLA, DPLA, LPS-F583, LPS-EB, LPS-RS, alone or pre-complexed by O/N incubation at 4°C, unless specified otherwise. Additionally, cells were stimulated with supernatants of untreated or UVB-treated U2OS or U2OS-IFI16^-/- cells alone or preincubated O/N at 4°C with LPS-EB, or LPS-RS. LPS variants or lipid A moieties were used at a concentration of 10 ng/ml. All treatments were carried out at 37°C and 5% CO2.
(§4) Quantitative real-time PCR (qRT-PCR) was performed on a CFX96 Real-Time PCR Detection System (Bio-Rad) as previously described. Total RNA was extracted using TRI Reagent (Sigma-Aldrich), and 1 μg was retrotranscribed using an iScript cDNA Synthesis Kit (Bio-Rad). Reverse-transcribed cDNAs were amplified in duplicate using SsoAdvanced Universal SYBR Green Supermix (Bio-Rad). The glyceraldehyde 3-phosphate dehydrogenase (GAPDH) gene was used as housekeeping gene to normalize for variations in cDNA levels. The relative normalized expression after stimulation as compared to control was calculated as fold change = 2 ^-Δ(ΔCT) where ΔCT = CTtarget—CTGADPH and Δ(ΔCT) = ΔCTstimulated - ΔCTcontrol. The primer sequences are available upon request.

TLR4/MD2 receptor [8] = target: T1, TLR4/MD2 receptor; experiment: SPR, analytes over immobilized TLR4/MD2; format: binding; set-up: purchased R&D Systems 3146-TM-050/CF
Experimental: The Biacore X100 (GE Healthcare) instrument was used for real-time binding interaction experiments. Recombinant TLR4 or TLR4/MD2 complex was covalently immobilized onto the surface of sensor CM5 (cat # BR100012, GE Healthcare) chips via amine coupling. TLR4 was diluted to a concentration of 10 μg/ml in 10 mM sodium acetate at pH 4.0, while TLR4/MD2 complex was diluted to a concentration of 20 μg/ml in the same buffer. Both proteins were injected on CM5 chips at a flow rate of 10 μl/min, upon activation of the carboxyl groups on the sensor surface with 7-min injection of a mixture of 0.2 M EDC and 0.05 M NHS. The remaining esters were blocked with 7-min injection of ethanolamine. Taking into account the ligands (TLR4 or TLR4/MD2) and analytes (IFI16, LPS-EB or IFI16/LPS-EB) molecular weights (MW) of 70 or 90 kDa, and 90, 10 or 100 kDa respectively, the appropriate ligand density (RL) on the chip was calculated according to the following equation: RL = (ligand MW/analyte MW) × Rmax × (1/Sm), where Rmax is the maximum binding signal and Sm corresponds to the binding stoichiometry. The target capture level of the TLR4 or TLR4/MD2 was of 596.0 or 1,223.9 response units (RUs), respectively. […] Increasing concentrations of endotoxin-free IFI16, LPS-EB or IFI16/LPS-EB complex were flowed over the CM5 sensor chip coated with TLR4 or TLR4/MD2 at a flow rate of 30 μl/min at 25°C with an association time of 120 s for IFI16 alone and the IFI16/LPS-EB complex, and 180 s for LPS-EB, and a dissociation phase of 180 s for IFI16 and IFI16/LPS-EB complex or 600 s for LPS-EB. A single regeneration step with 50 mM NaOH was performed following each analytic cycle. All the analytes tested were diluted in the HBS-EP+ buffer (GE Healthcare). […]
Target sequence in this assay (O00206 24-631 limits assumed): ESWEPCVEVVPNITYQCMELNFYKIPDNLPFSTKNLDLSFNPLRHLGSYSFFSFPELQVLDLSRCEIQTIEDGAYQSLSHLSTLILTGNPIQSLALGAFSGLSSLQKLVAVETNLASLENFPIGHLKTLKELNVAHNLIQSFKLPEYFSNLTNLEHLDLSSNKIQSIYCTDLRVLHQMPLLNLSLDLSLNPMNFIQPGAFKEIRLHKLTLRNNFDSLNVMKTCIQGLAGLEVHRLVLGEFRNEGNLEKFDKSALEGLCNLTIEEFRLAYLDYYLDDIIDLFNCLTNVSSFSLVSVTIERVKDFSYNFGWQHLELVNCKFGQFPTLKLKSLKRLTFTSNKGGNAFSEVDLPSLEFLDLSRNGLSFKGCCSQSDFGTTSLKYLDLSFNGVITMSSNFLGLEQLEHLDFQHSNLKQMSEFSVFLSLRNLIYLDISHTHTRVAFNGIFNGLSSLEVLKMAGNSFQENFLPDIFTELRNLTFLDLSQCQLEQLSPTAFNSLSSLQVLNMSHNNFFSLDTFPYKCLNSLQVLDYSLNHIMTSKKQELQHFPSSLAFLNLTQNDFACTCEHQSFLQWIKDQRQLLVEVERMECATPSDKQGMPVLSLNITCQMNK
Target sequence in this assay (Q9Y6Y9 17-160 limits assumed): as the sequence (Q9Y6Y9 17-160 limits assumed) above

786-O cells [9] = experiment: Cytokine release by ELISA in 786-O culture supernatants; format: cell-based, human; settings: 24 h post-treatment, 25 μg/ml, alone or complexed with LPS
Experimental: as §3
Cytokines secreted in culture supernatants after treatments were analyzed using human IL-6 DuoSet ELISA and human IL-8 DuoSet ELISA (all from R&D Systems), human TNF-α Uncoated ELISA and human IL-1β Uncoated ELISA (Thermo Fisher Scientific) according to the manufacturer’s instructions. Absorbance was measured using a Spark multimode microplate reader (Tecan).

THP-1 cells = experiment: qRT-PCR of proinflammatory cytokine mRNA in THP-1 cells; format: cell-based, human; settings: 24 h, IFI16 25 μg/ml, over mock-treated cells
Experimental: as §3, §4

T2 sequence (O00206 24-631 limits assumed): as the sequence (O00206 24-631 limits assumed) above

B1: IFI16: human recombinant IFI16 protein, endotoxin-free (protein)
chain: MGKKYKNIVLLKGLEVINDYHFRMVKSLLSNDLKLNLKMREEYDKIQIADLMEEKFRGDAGLGKLIKIFEDIPTLEDLAETLKKEKLKVKGPALSRKRKKEVDATSPAPSTSSTVKTEGAEATPGAQKRKKSTKEKAGPKGSKVSEEQTQPPSPAGAGMSTAMGRSPSPKTSLSAPPNSSSTENPKTVAKCQVTPRRNVLQKRPVIVKVLSTTKPFEYETPEMEKKIMFHATVATQTQFFHVKVLNTSLKEKFNGKKIIIISDYLEYDSLLEVNEESTVSEAGPNQTFEVPNKIINRAKETLKIDILHKQASGNIVYGVFMLHKKTVNQKTTIYEIQDDRGKMDVVGTGQCHNIPCEEGDKLQLFCFRLRKKNQMSKLISEMHSFIQIKKKTNPRNNDPKSMKLPQEQRQLPYPSEASTTFPESHLRTPQMPPTTPSSSFFTKKSEDTISKMNDFMRMQILKEGSHFPGPFMTSIGPAESHPHTPQMPPSTPSSSFLTTLKPRLKTEPEEVSIEDSAQSDLKEVMVLNATESFVYEPKEQKKMFHATVATENEVFRVKVFNIDLKEKFTPKKIIAIANYVCRNGFLEVYPFTLVADVNADRNMEIPKGLIRSASVTPKINQLCSQTKGSFVNGVFEVHKKNVRGEFTYYEIQDNTGKMEVVVHGRLTTINCEEGDKLKLTCFELAPKSGNTGELRSVIHSHIKVIKTRKNKKDILNPDSSMETSPDFFF
- IFI16 binding to surface of gram-negative bacteria [1]: strongly associated with the surface of both gram-negative bacteria species
- IFI16 binding to gram-positive bacteria [2]: no IFI16 binding could be detected
- NF-κB binding activity fold induction vs untreated cells (NF-κB [3]): 2.2 fold
- Pull-down by biotin-LPS-EB (Coomassie band) [4]: readily detect a highly reproducible ~100-kDa band
- Co-immunoprecipitation with TLR4/MD2 (TLR4/MD2 receptor [5]): co-immunoprecipitated with TLR4/MD2 receptor
- Kd (TLR4): 130 nM
- NF-κB binding activity fold induction vs untreated cells (NF-κB [6]): 2.4 fold
- IL-1β gene expression fold induction (786-O cells [7]): 13 fold
- dissociation rate constant (Kd) (TLR4/MD2 receptor [8]): 0.00614 s⁻¹
- Ka (TLR4/MD2 receptor [8]; association rate constant): 9070 M⁻¹ s⁻¹
- dissociation rate constant (koff) (TLR4/MD2 receptor [8]; dissociation rate constant): 0.00614 s⁻¹
- Rmax (TLR4/MD2 receptor [8]; maximum response): 26.09 RU
- Kd (TLR4/MD2 receptor [8]; text / Fig 8C legend, read-out: equilibrium dissociation constant (KD)): 680 nM
- IL-1β release (786-O cells [9]): neither IFI16 nor IFI16ΔHINB per se or after forming a complex with LPS induced IL-1β release
- IL-1β gene expression fold induction (THP-1 cells): 72 fold

Source: publication PMC7505474, “Toll-like receptor 4-mediated inflammation triggered by extracellular IFI16 is enhanced by lipopolysaccharide binding” (PLoS Pathogens, 2020)
